Test results: patent publication US20190375820A1 (ACCELERON PHARMA, published 2019)
One block for each binder: values may come before it.

Key:
activin AC = target: T1, activin AC (UniProt P08476 311-426; P55103 237-352); test: SPR (Biacore); receptor-Fc captured via anti-Fc antibody, ligand injected
T1 sequence (looked up) 1: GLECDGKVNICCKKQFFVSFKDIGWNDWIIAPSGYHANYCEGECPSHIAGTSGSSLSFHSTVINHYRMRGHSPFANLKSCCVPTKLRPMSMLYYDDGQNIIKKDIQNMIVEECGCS
T1 sequence (looked up) 2: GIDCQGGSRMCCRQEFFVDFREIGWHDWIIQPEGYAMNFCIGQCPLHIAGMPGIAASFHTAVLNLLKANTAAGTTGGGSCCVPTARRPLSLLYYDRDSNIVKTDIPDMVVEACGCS
Description: (§1) Ligands were injected and allowed to flow over the captured receptor protein.

activin C = target: T2, activin C (UniProt P55103 237-352); test: as above
T2 sequence (looked up): T1 sequence (looked up) 2
Description: as §1

Kd (activin AC): 0.22 nM | koff (activin AC): 0.00057 s⁻¹ | kon (activin AC): 2.6e+06 M⁻¹ s⁻¹ | Kd (activin C): 6.9 nM | koff (activin C): 0.0024 s⁻¹ | kon (activin C): 350000 M⁻¹ s⁻¹
B1: ActRIIB-Fc:ALK7-Fc heterodimer (Fc fusion)
chain 1: GRGEAETRECIYYNANWELERTNQSGLERCEGEQDKRLHCYASWRNSSGTIELVKKGCWLDDFNCYDRQECVATEENPQVYFCCCEGNFCNERFTHLPEAGGPEVTYEPPPTAPTGGGTHTCPPCPAPELLGGPSVFLFPPKPKDTLMISRTPEVTCVVVDVSHEDPEVKFNWYVDGVEVHNAKTKPREEQYNSTYRVVSVLTVLHQDWLNGKEYKCKVSNKALPAPIEKTISKAKGQPREPQVYTLPPSRKEMTKNQVSLTCLVKGFYPSDIAVEWESNGQPENNYKTTPPVLKSDGSFFLYSKLTVDKSRWQQGNVFSCSVMHEALHNHYTQKSLSLSPGK
chain 2: GLKCVCLLCDSSNFTCQTEGACWASVMLTNGKEQVIKSCVSLPELNAQVFCHSSNNVTKTECCFTDFCNNITLHLPTASPNAPKLGPMETGGGTHTCPPCPAPELLGGPSVFLFPPKPKDTLMISRTPEVTCVVVDVSHEDPEVKFNWYVDGVEVHNAKTKPREEQYNSTYRVVSVLTVLHQDWLNGKEYKCKVSNKALPAPIEKTISKAKGQPREPQVYTLPPSREEMTKNQVSLTCLVKGFYPSDIAVEWESNGQPENNYDTTPPVLDSDGSFFLYSDLTVDKSRWQQGNVFSCSVMHEALHNHYTQKSLSLSPG
notes: The receptor parts are the same in both pairs; only the Fc domains differ; also called ALK7-Fc:ActRIIB-Fc heterodimer; ActRIIB-Fc:ALK7-Fc heterodimeric complex

Kd (activin AC): 0.16 nM | koff (activin AC): 0.0031 s⁻¹ | kon (activin AC): 2e+07 M⁻¹ s⁻¹
B2: ActRIIB-Fc homodimer (Fc fusion)
chain: SGRGEAETRECIYYNANWELERTNQSGLERCEGEQDKRLHCYASWRNSSGTIELVKKGCWLDDFNCYDRQECVATEENPQVYFCCCEGNFCNERFTHLPEAGGPEVTYEPPPTAPTLLT
notes: also called ActRIIB-Fc homodimeric complex; ActRIIB homodimer; not shown: linker and Fc domain

binding result (activin C): no binding
B3: ALK7-Fc homodimer (Fc fusion)
chain: LSPGLKCVCLLCDSSNFTCQTEGACWASVMLTNGKEQVIKSCVSLPELNAQVFCHSSNNVTKTECCFTDFCNNITLHLPTASPNAPKLGPME
notes: also called ALK7-Fc homodimeric complex; ALK7 homodimer; not shown: linker and Fc domain
